Measurements as given in a protein production outcome set (Wang et al. 2014).

Experiment: label from the status in PepcDB records
In the case of “MSSFSLAVRDSSTMLRRNLLHARRYPSLTLNLLLTPVMLLLLFVYIFGDTMSGGAGRSAYIAYIVPGILLMTIGSTTIGTAVSVSTDMNEGIIARFRTMAIHRSSVLFGHVAGSVLQAIMSVVLVGAVGVAMGFRSTDATVLEWLAAFGLLALFALAFTWIAVGMGLGSPNAEAASNNAMPLILLPLISSAFVPLDSMPGWFQPIAEYQPFTPAIETLRGLLLGTEIGNNWWIALAWCLGLTVLGHRWSKAQFNRDPK”, the protein production is reported as “failed”.
With “MSSKQWRWIPNALTFLRMVLIVPFAGALLEGNYRLSLVIFFVAALTDAFDGFLARHFNWRSRLGAVADPLADKALLISAYLMLTITGVLPLWLFALVLGRDLVIVCGGLAFHYGIGRFDMEPSIPGKINTFVQILVALAIIILLAGLPMQPWVIDTGIWLVAVSALVSGGHYVAVWSLRAWRAKRS” the protein production was “failed”.
In the case of “MSSKRLVIVGGGITGLAAAYYAERAFPDLNITLLEAGERLGGKVATYREDGFTIERGPDSYVARKHILTDLIEAIGLGEKLVRNNTSQAFILDTGGLHPIPKGAVMGIPTDLDLFRQTTLLTEEEKQEVADLLLHPSDSLRIPEQDIPLGEYLRPRLGDALVEKLIEPLLSGIYAGNIDQMSTFATYPQFVANEQKAGSLFEGMRLMRPLDQLPQTPQTTIKATGQFLSLETGLESLIERLEEVLERSEIRLETPLLAISREDGRYRLKTDHGPEYADYVLLTIPHPQVVQLLPDAHLPELEQLTTHSTATVTMIFDQQQSLPIEGTGFVVNRRAPYSITACTAIDQKWNHSAPDHTVLRAFVGRPGNDHLVHESDEVLQQAVLQDLEKICGRTLEPKQVIISRLMDGLPAYTVGHADRIQRVREEVLAQYPGIYLAGLAYDGVGLPDCVASAKTMIESIELEQSHTDESVNET”, the protein production is reported as “not failed”.
With “MSSLALRSPALALALTLGGLLLCGPVQAQQANSANDMVGRMQYRISELERLVQDLTGKVEQSLYENRQLQTKLENAQSDIDFRLNALESAGPAAAAPANSVPSSARPTASAGAGKQGTPAPAEGVLGFPGKTAPAQGAASAARPAAAGALPAGSENDQYNYAFSLLRNADYPAAEQAFKAFLDQHPKGSLAGNAQYWLGETYYVRGDYEQAAVAFMGGYQSHPDSSKGPDNLLKLGLAMANLGKSKEACAAFGRLESQYPKAADAIKRRAKEGMSKLGC” the protein production was “failed”.
For “MSSLGSRSSTSIQPVILCGGSGTRLWPLSRQSYPKQFMPLLGGRSLLALTLERVSGLSSHPWCVASTEHRFLVIDAFEQCQLNGQVLLEPSARNTAAAIAVAALHAEDDALLLFCPADHYIPDAPAFVERVRQAQVAALDGALVTFGVFPTYPSSAYGYIEASAPWQDSGALHVQRFIEKPSATQAAELLLKGNMYWNAGIFLGLAREWRRALELHAPDILAACRDALREAESPVISRSGQTTVQSVVLHEPSFDACRSQSIDYAVMEHHRPICAVPFNGAWSDVGSWNAVADLSSADDKGNSSQGDAHLFDCQRTYVHAAGRRPVVALGLEDVCIVDTDDAVLVMPMSRAEDIKSVVGQLTDRSVAQALLHRRVARPWGWYDSLDQGERFQVKRIGVKPGASLSLQLHHHRAEHWTVVKGTAEITCGDRVFLLSENQSTYIPLGQRHRLHNPGKVELEIIEVQSGSYLAEDDIVRLEDNYGRTAPHCPGPAEADSTLIEQ”, the protein production was “failed”.
With “MSSLKDNYQSKVKAYQPSPPYVLNCIKAFLVGGLICTIGQAFQNFYMAVFHFDEKTAGNPTVATLILISALLTGLGVYDRIGQFAGAGSAVPVTGFANSMTSAALEHKSEGYVLGVGTNMFKLAGNVIVFGVVAAYIVGMIRFAFDKLF” the protein production was “failed”.
In the case of “MSSLLPEKWGEALERVHDKVGHFLTRVMPWKKQEHFPERITADTLPAFMQSGGPLLDMHETADELIIRAEVPGLKNDDFSVGIVGRRLTIKGEKNIVRERKGGDGCLISECRYGSFARTLQLPYEIDEKAIAADLKHGVLTIRLPKPEKGRHARYRVPIS”, the protein production is reported as “failed”.
In the case of “MSSLMIKLNLNYKLITKKTLPKLFYWGLGIVFFFLAPTTNAGSLSPYTTKELEQLEREFIQLINQSDSVERNPLASQYINSIGKKLAHYGRIKTPYFFIVKSKEINAFAGPGGYIGINTQLILTSSNESELAAVMAHEIAHVRLHHLYSIIEHQKQMRVPLLASILASAALGVLNPTVGMGAMMASVSGFSQDNINFTRSKEKEADRIGIDMLIKAGFNPQGMAAFFNKMQENSRYYYTANIPAILRTHPLDADRIAEAENRTSRLPKKHYTDSLDYALFKELIRVSVASNNKQILDYYEHHCHKKNPATACQYGYVLALLNNNNFQKAAEKLNPLLLQDNSNLNFQIAMAQAELGLSQYQSALSRLAELQNNFPDNYAALMAYAQGLLTANQPQKATAVLLKGSRQYKEDLPLCRELARAQAESHQKSYAYFTQAQCLLLEGQKRGAIAQLKVAQKLAKRDAYLSARISAKIDEIKFMVENLEHHHHHH”, the protein production is reported as “failed”.
With “MSSLNIKQGSDAHFPDYPLASPSNNEIDLLNLISVLWRAKKTVMAVVFAFACAGLLISFILPQKWTSAAVVTPPEPVQWQELEKTFTKLRVLDLDIKIDRTEAFNLFIKKFQSVSLLEEYLRSSPYVMDQLKEAKIDELDLHRAIVALSEKMKAVDDNASKKKDEPSLYTSWTLSFTAPTSEEAQTVLSGYIDYISALVVKESIENVRNKLEIKTQFEKEKLAQDRIKMKNQLDANIQRLNYSLDIANAAGIKKPVYSNGQAVKDDPDFSISLGADGIERKLEIEKAVTDVAELNGELRNRQYLVEQLTKANINDVNFTPFKYQLSPSLPVKKDGPGKAIIVILSALIGGMVACGSVLLRYAMASRKQDAMMADHLV” the protein production was “not failed”.
In the case of “MSSLNNEEWDLLISGKKATLQYPIPLLCYPAPEVVSIAQIIDHTQLSLSATGSQIDVLCAEAKEYGFATVCVRPDYVSRAVQYLQGTQVGVTCVIGFHEGTYSTDQKVSEAKRAMQNGASELDMVMNYPWLSEKRYTDVFQDIRAVRLAAKDAILKVILETSQLTADEIIAGCVLSSLAGADYVKTSTGFNGPGASIENVSLMSAVCDSLQSETRVKASGGIRTIEDCVKMVRAGAERLGASAGVKIVNETRLGNRQVDEPMEPTNY”, the protein production is reported as “not failed”.
In the case of “MSSLQGGISLTHIAAGIAVVALIILGVGFYAIYQELASLRSQVEGLNTRYEEISESLEEVQGAFESSRGDIESIASSLESIQDRVSKIEERLGSAATQSDLDAVARELASLTQQLEDLQARIQALEESGAEAGERLDQLAMALQDLQARLASLEERVDEVYASLYFPVTVVDGTGTPVVILERPERIVSMAPSATETLYYVGALDRVVGVDQYSDFPPELNEAKEAGEVEVIGGYWNPSIEAILSLEPDLVVGVASVPNHIQVKKVLSAYGIPVILLPDSSLEDVRESMMIVGKATGEVVGAYEAVLKFDMAVAAAGLLLEGVEPVETAVVVWPNPLFVVGGGTWEHEVIELAGGVNVYGDTQGWPQVSYESLLEADPDVIILMGGHGNSGVTVEGFIEALESQLGEAAWEIDAVASGRIYVLLDEYNDSFARPSPRTVLSIYVLAVLIQPSAFDIQPGDLPSEVSPETLDVLGLLEGRVPEEVLEFLGEALG”, the protein production is reported as “failed”.
With “MSSNNINSIISKIQQKNTATVITVGNYKGGAGKTTNVVLLAYKLAKKGLKVCVLDLDPQSNATKSLLLTKSSLYQDEVVTIEKTLMTGISEKNLDGLEVKIMDNLYLLPSYIDFEDFPKYLYKNTSNQREEDYYLKNIFTPLQGKYDIVLIDVPPMSKAVTRNAVICSDYVLISLQTHERSLSGAESYVEELNKLHNEYDLDLEVVGVLPVIHKNNGSVDQYVMEVAKETFGEDNLFENVVPQMERIKRFDVNGITDKDRHDQKVLNLYDKVSDELLDRINYFEEEKEGAING” the protein production was “not failed”.
With “MSSPLVLPSDGHYWLKNAHIPPNLVKTKVNFPENFQFPRPWEDLGLYHLEIADGKIKNIVAVGQGEESDLVTDDGVPRVDLSKRMILPCFVDMHTHLDKGHIWGRSPNVDGTFSGAIASTERDAELHHSPEDIYRRMEFALQCSYAHGTAAVRTHIEMAGQKSQIAWQTFQQLRQAWADRLTLQGVAMVTTDYYLGSAGEKLADQMAHGGGILGGVAYAGPQVEAQLTRLMTLAQARNLAIDLHVDENGDRRSRVLHQVAAIALKVGFTGQIVCGHCCSLDVQSPQQVQQTLALVKQANIAIISLPLCNLYLQGRHQPQKPAWRGITKVHAIHAEGIPLVFASDNCRDPFFPFGDHDGLEILNQSVRIGQLDPPYGHWCATVNQTPAQLMGLADYGRLAVNGPADLVIFPARYFSEIFSRPQGDRLVIRKGKPTHKKTPHYQELDDLMGA” the protein production was “failed”.
For “MSSPVVEIQIWSDLICPWCWIGKRRLERALRNSSLFADIKVRHRAFRLMPELIPLPVIDVLQQRYGGSAEQIVAIQQRIEKIAAEESLIYRLVGTQGADTLQAHRLLYLAHRQGLQEVLLERFYSAYFSEGTPIFDTDTLAPLALDVGLERTAVAALFAGQDFIAEIEDDQRRLQRYGANGVPFFLMDGRIAVNGAQPIEAFSDALAQLNADAASQSAFFLR”, the protein production was “failed”.
In the case of “MSSSSDAPLVATRWVEIGLALFTAALGAIVMYGSQDIGIGWGDSGPEAGYFPFYIGLLLSAASLGNLLLALCRWRALGTSFVARTAFRRVLAVFLPIAAYVAAMPFAGIYLASALFIAWFMWRDRSRDKPYGVPLIVTLSCGAALASYLVFAVWFKVPLDAGILVDLAAFVGSARP”, the protein production is reported as “failed”.
With “MSSSSGNQNSKEHKVAVTHDLGKTNVPEHPKRVVVLELGFIDTLLDLGITPVGVADDNKAKQLINKDVLKKIDGYTSVGTRSQPSMEKIASLKPDLIIADTTRHKKVYDQLKKIAPTIALNNLNADYQDTIDASLTIAKAVGKEKEMEKKLTAHEEKLSETKQKISANSQSVLLIGNTNDTIMARDENFFTSRLLTQVGYRYAISTSGNSDSSNGGDSVNMKMTLEQLLKTDPDVIILMTGKTDDLDADGKRPIEKNVLWKKLKAVKNGHVYHVDRAVWSLRRSVDGANAILDELQKEMPAAKKLEHHHHHH” the protein production was “failed”.
With “MSSSSSKIVVYAALVGNLLIALSKFIAAYFTNSAAMLSEAIHSVVDSLNEILLLYGLKKSQKPANYRHPFGYGRELYFWAFIVALLVFALGAVVSIYQGVSHILQPEEMKYPLVNYLVLGFAILCEGASWWVAVKNFKKMKGSLGYFEAFKRSKDPTTFTVLFEDSAALIGLIIALIGITAAQFLQIPILDGVASVLIGVVLAVSAFLLARETKGLLLGETADPELRKNVLRIAQDDEAVYSANGVLTEQIGAHQVIASLSLEFKDGLISDEIENCVNRIEAQIKQIHPEIVALFIKPQSNEVWLERMKGRLNQQNGEIVAAKVK” the protein production was “failed”.
In the case of “MSSSSVIMDFLKYSPQPLQLITRPRHSIHHSTLRSSRRLTTSHNHSTPRSSSSHHHFSPSLDPVAEHHHHQSLDRTLDLVVESPHHHSLDPSLCHQVEFHHHPPLDIILDCQLQSLLDSAINKTLEHKEEMKTLARHSTHYLITWVEYHS”, the protein production is reported as “failed”.
In the case of “MSSVINYEKFEKIDISSSDDDNKKKLNPHLTKLDNKDKVVIGPNGLTILKNNNDEKIKHDKYNNTSKNVEEIKDKNDEYKTIYNETNNEILNNKNDNIHVQNMNNYVADDKKYKDMFINGAVVPYEYIWNQSIHYINAFICLPLNCKAKNLIVDIKEDKLIVKIKNYKCGIIYNNNNNNNKTNQHNTQSNSFHDNVEILVDKKFPFKINTDEDTQIWEIKNMQINWYTLFNLSNEINNQNVHYLFEDYNMLDKQETFLYISVKKINEIENAYIWWSTLFKNEHPIKIENLPSRSSTNKAKKTMNSFKTAWDEAHEIFKKNISMKQLPFRIDSS”, the protein production is reported as “failed”.
In the case of “MSSVSLQDFDAERIGLFHEDIKRKFDELKSKNLKLDLTRGKPSSEQLDFADELLALPGKGDFKAADGTDVRNYGGLDGIVDIRQIWADLLGVPVEQVLAGDASSLNIMFDVISWSYIFGNNDSVQPWSKEETVKWICPVPGYDRHFSITERFGFEMISVPMNEDGPDMDAVEELVKNPQVKGMWVVPVFSNPTGFTVTEDVAKRLSAMETAAPDFRVVWDNAYAVHTLTDEFPEVIDIVGLGEAAGNPNRFWAFTSTSKITLAGAGVSFFLTSAENRKWYTGHAGIRGIGPNKVNQLAHARYFGDAEGVRAVMRKHAASLAPKFNKVLEILDSRLAEYGVAQWTVPAGGYFISLDVVPGTASRVAELAKEAGIALTGAGSSYPLRQDPENKNLRLAPSLPPVEELEVAMDGVATCVLLAAAEHYAN”, the protein production is reported as “not failed”.
